Paper PMC9482650, “Quantitative fragmentomics allow affinity mapping of interactomes” (Nature Communications, 2022)

Columns and labels:
Experiment in all cases: holdup assay
Parameters in all cases: key: below the threshold = too weak to quantify, mostly under pKd 3.1 to 4
[1] = biological target: MAGI3_2, Q5TCQ9
[2] = biological target: IL16_3, Q14005
[3] = biological target: DLG5_1, Q8TDM6
[4] = biological target: PTPN3, P26045
[5] = biological target: HTRA1, Q92743
[6] = biological target: T1, RADIL, Q96JH8
T1 sequence (Q96JH8 971-1071, limits assumed, looked up): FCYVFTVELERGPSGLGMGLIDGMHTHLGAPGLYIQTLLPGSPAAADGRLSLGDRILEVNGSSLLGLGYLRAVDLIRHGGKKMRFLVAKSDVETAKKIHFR

[7] = biological target: TJP1_3, Q07157
Sequence of TJP1_3, Q07157 (Q07157 416-512): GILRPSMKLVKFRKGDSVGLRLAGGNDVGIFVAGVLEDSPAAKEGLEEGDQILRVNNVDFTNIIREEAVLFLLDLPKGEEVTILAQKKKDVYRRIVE

[8] = biological target: T2, RAPGEF6, Q8TEU7
T2 sequence (Q8TEU7 525-625, limits assumed, looked up): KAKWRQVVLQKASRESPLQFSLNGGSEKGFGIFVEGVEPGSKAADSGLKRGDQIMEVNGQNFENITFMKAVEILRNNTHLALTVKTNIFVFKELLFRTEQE

[9] = biological target: T3, MPP7, Q5T2T1
T3 sequence (Q5T2T1 134-230, limits assumed, looked up): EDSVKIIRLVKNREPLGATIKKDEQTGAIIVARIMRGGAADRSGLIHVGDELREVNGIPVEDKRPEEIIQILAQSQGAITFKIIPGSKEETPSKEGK

[10] = biological target: T4, SNTA1, Q13424
T4 sequence (Q13424 82-180, limits assumed, looked up): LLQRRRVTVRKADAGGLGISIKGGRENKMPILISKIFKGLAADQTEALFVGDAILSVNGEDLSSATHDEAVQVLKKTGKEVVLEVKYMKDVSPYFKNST

[11] = biological target: T5, SNTG2, Q9NY99
T5 sequence (Q9NY99 68-166, limits assumed, looked up): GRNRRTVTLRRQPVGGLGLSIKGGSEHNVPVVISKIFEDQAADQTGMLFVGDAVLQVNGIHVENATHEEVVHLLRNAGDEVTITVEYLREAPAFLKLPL

[12] = biological target: PDLIM1, O00151
Sequence of PDLIM1, O00151 (O00151 1-87): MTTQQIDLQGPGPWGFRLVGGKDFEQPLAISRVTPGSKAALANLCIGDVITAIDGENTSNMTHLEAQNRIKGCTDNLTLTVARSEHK

[13] = biological target: T6, ARHGEF11, O15085
T6 sequence (O15085 42-136, limits assumed, looked up): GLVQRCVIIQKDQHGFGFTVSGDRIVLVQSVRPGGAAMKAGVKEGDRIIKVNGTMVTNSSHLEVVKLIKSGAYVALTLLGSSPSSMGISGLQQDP

[14] = biological target: FRMPD3, Q5JV73
Sequence of FRMPD3, Q5JV73 (Q5JV73 12-100): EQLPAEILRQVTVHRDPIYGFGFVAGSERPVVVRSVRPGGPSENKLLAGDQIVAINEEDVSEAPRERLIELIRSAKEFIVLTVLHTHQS

[15] = biological target: T7, GRIP1_2, Q9Y3R0
T7 sequence (Q9Y3R0 145-248, limits assumed, looked up): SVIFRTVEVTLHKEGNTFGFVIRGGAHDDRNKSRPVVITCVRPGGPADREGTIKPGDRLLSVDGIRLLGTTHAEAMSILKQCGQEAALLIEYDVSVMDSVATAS

[16] = biological target: Inadl_5, Q8NI35
Sequence of Inadl_5, Q8NI35 (Q8NI35 673-780): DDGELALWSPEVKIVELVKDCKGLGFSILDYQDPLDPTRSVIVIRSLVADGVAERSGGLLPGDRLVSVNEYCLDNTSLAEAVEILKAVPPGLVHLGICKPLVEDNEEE

[17] = biological target: Inadl_3, Q8NI35
Sequence of Inadl_3, Q8NI35 (Q8NI35 359-469): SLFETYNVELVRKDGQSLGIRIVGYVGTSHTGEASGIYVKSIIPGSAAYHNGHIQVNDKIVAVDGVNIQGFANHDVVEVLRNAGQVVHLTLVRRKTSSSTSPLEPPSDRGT

[18] = biological target: T8, RHPN1, Q8TCX5
T8 sequence (Q8TCX5 508-602, limits assumed, looked up): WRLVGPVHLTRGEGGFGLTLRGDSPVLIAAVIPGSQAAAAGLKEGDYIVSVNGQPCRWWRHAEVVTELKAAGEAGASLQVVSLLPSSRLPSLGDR

[19] = biological target: GRID2IP_2, A4D2P6
Sequence of GRID2IP_2, A4D2P6 (A4D2P6 272-370): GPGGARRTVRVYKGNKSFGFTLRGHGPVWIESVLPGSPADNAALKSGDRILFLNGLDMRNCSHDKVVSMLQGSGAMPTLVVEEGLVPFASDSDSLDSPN

[20] = biological target: IL16_1, Q14005
Sequence of IL16_1, Q14005 (Q14005 210-306): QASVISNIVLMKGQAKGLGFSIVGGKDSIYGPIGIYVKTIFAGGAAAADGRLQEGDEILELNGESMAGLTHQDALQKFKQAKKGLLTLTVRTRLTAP

[21] = biological target: MAGI2_2, Q86UL8
Sequence of MAGI2_2, Q86UL8 (Q86UL8 410-522): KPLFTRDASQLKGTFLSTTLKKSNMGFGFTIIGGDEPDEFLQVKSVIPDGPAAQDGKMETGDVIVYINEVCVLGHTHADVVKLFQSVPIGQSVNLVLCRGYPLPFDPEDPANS

[22] = biological target: LNX1_2, Q8TBB1
Sequence of LNX1_2, Q8TBB1 (Q8TBB1 371-470): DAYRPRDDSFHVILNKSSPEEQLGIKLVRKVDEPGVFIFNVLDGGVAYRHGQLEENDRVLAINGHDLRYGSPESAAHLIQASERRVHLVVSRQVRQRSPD

[23] = biological target: T9, APBA1_1, Q02410
T9 sequence (Q02410 651-752, limits assumed, looked up): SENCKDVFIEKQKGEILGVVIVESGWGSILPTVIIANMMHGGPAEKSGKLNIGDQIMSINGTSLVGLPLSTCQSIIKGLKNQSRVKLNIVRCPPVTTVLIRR

[24] = biological target: MAST1, Q9Y2H9
Sequence of MAST1, Q9Y2H9 (Q9Y2H9 962-1065): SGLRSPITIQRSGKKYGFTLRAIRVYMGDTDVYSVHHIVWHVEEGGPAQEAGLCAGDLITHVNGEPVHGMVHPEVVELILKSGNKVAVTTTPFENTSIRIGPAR

[25] = biological target: T10, NHERF3_3, Q5T2W1
T10 sequence (Q5T2W1 238-333, limits assumed, looked up): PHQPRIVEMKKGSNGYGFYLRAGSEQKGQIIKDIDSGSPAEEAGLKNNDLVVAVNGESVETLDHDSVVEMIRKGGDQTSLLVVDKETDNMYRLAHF

[26] = biological target: ARHGEF12, Q9NZN5-2
Sequence of ARHGEF12, Q9NZN5-2 (Q9NZN5 other isoform, or with tags, fused parts or gaps): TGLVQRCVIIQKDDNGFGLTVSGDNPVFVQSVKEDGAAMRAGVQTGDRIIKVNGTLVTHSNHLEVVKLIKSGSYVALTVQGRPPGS

[27] = biological target: T11, PDZRN3_1, Q9UPQ7
T11 sequence (Q9UPQ7 244-349, limits assumed, looked up): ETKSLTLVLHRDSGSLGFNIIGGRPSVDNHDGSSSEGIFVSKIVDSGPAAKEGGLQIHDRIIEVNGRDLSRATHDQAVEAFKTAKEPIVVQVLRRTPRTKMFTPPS

[28] = plain residues with an end cap or a label only (N-terminal biotin on a linker: ahx)
[29] = plain residues with an end cap or a label only (N-terminal biotin on a linker: ttds)

Sequence of HTRA1, Q92743 (Q92743 360-477): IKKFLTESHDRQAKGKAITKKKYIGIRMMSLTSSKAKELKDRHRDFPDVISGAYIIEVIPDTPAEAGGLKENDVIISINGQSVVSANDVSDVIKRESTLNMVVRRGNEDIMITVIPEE
Sequence of IL16_3, Q14005 (Q14005 1107-1207): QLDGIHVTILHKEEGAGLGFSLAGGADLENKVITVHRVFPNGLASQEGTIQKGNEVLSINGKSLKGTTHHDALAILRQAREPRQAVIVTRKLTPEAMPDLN
Sequence of DLG5_1, Q8TDM6 (Q8TDM6 617-713): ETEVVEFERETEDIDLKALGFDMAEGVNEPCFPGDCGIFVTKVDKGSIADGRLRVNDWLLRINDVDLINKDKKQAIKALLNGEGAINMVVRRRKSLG
Sequence of MAGI3_2, Q5TCQ9 (Q5TCQ9 398-503): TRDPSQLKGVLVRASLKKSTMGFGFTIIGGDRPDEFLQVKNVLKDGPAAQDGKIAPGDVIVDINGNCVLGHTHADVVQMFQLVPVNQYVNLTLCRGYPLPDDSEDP
Sequence of PTPN3, P26045 (P26045 505-587): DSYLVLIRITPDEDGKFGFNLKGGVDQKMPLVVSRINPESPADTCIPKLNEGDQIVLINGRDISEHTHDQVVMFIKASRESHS

With RRRKRKRTYL [HPV49-L2, P36762] the pKd [1, 28] was 5.4, the pKd [2, 28] was “below the threshold” and the pKd [3, 28] was “below the threshold”. For the same binder, the pKd [4, 28] was 3.72, the pKd [5, 28] was 3.99 and the pKd [6, 28] was “below the threshold”. The pKd [7, 28] was “below the threshold”, the pKd [8, 28] was “below the threshold” and the pKd [9, 28] was “below the threshold”. The pKd [10, 28] was 3.69, the pKd [11, 28] was 3.57 and the pKd [12, 28] was 3.52. For the same binder, the pKd [13, 28] was 4.01, the pKd [14, 28] was 3.5 and the pKd [15, 28] was “below the threshold”. The pKd [16, 28] was 4.05, the pKd [17, 28] was 3.72 and the pKd [18, 28] was 3.51. For the same binder, the pKd [19, 28] was 5.11, the pKd [20, 28] was “below the threshold” and the pKd [21, 28] was 5.33. The pKd [22, 28] was “below the threshold”, the pKd [23, 28] was 3.71 and the pKd [24, 28] was 4.21. For the same binder, the pKd [25, 28] was 4.18, the pKd [26, 28] was 4.68 and the pKd [27, 28] was 3.51.

EVVHTPETSV [SLC16A3, O15427] was tested, and the pKd [1, 29] was 4.33, the pKd [2, 29] was “below the threshold” and the pKd [3, 29] was “below the threshold”. The pKd [4, 29] was 4.86, the pKd [5, 29] was “below the threshold” and the pKd [6, 29] was “below the threshold”. The pKd [7, 29] was “below the threshold”, the pKd [8, 29] was “below the threshold” and the pKd [9, 29] was “below the threshold”. The pKd [10, 29] was 4.69, the pKd [11, 29] was 4.55 and the pKd [12, 29] was “below the threshold”. For the same binder, the pKd [13, 29] was 3.76, the pKd [14, 29] was “below the threshold” and the pKd [15, 29] was “below the threshold”. The pKd [16, 29] was “below the threshold”, the pKd [17, 29] was “below the threshold” and the pKd [18, 29] was 4.24. For the same binder, the pKd [19, 29] was “below the threshold”, the pKd [20, 29] was 3.6 and the pKd [21, 29] was “below the threshold”. The pKd [22, 29] was “below the threshold”, the pKd [23, 29] was “below the threshold” and the pKd [24, 29] was 4.11. The pKd [25, 29] was “below the threshold”, the pKd [26, 29] was 3.89 and the pKd [27, 29] was 4.42.
